Reference: PMC3393671

Experiments:
[1] = molecular target: ROP5 of T. gondii strain RH-YFP (isoforms not told apart) (UniProt F2YGR7); test: pull-down (quantitated Western blot); details: 25 µg protein/100 µl 1:1 bead suspension; RH-YFP strain T. gondii lysates; 3E2 antibody (anti-ROP5); GST signal subtracted; parent: est. 100; read off a plot
GST-Irga6-D164A (mouse) = GST-Irga6-D164A (mouse) (UniProt Q9QZ85); test: pull-down; GST-IRG fusion (25 or 50 µg per 100 µl 1:1 bead suspension) on Glutathione Sepharose 4B; postnuclear NP-40 lysate of RH-YFP T. gondii; o/n at 4°C; with or without 1 mM GDP; Western blot with mAb 3E2 (ROP5) or anti-ROP18 antiserum; GST-loaded beads as control
Sequence of GST-Irga6-D164A (mouse) (Q9QZ85 1-411 D164A): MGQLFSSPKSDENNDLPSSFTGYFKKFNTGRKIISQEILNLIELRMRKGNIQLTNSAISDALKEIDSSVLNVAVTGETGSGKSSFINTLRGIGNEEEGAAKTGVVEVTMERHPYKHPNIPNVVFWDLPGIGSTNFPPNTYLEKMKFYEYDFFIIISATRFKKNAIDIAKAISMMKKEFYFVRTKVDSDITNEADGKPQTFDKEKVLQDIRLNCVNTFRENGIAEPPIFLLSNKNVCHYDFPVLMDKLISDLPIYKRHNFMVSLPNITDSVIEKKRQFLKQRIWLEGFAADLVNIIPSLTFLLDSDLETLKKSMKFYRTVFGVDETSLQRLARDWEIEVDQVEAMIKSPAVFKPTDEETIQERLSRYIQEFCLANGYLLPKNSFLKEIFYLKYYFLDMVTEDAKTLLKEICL

Sequence of GST-Irga6 (Q9QZ85 1-411, stated change not applied): as the sequence (Q9QZ85 1-411 D164A) above, with A164D counted along it
Sequence of ROP5 of T. gondii strain RH-YFP (isoforms not told apart) (from UniProt F2YGR7 25-549) (natural protein) (F2YGR7 25-549): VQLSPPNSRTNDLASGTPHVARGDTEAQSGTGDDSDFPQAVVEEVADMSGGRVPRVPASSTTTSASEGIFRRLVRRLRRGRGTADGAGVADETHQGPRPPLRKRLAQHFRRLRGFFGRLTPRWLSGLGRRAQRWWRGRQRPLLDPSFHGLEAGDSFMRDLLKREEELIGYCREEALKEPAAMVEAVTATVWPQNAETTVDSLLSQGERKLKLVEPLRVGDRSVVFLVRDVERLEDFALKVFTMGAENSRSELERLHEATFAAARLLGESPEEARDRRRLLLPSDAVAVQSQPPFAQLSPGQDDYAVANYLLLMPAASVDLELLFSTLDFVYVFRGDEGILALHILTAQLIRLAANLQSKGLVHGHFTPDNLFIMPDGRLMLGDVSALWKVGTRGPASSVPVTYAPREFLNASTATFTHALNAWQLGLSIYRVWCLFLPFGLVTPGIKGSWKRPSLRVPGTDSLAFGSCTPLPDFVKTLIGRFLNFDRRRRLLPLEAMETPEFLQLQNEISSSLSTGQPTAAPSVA
Sequence of ROP5 of T. gondii strain RH-YFP (isoforms not told apart) (UniProt F2YGR7) (F2YGR7 25-549): as above

Substance | percent of parent (% of wild-type intensity) [1] | percent of ROP5 binding blocked (against wt GST-Irga6) (GST-Irga6-D164A (mouse)) [%]
GST-Irga6 (from UniProt Q9QZ85) D206R | 68 | 
ROP5 of T. gondii strain RH-YFP (isoforms not told apart) (from UniProt F2YGR7 25-549) (natural protein) |  | > 95
